Values of other authors in PMC5519506 (Molecular pharmaceutics, 2016).
Like-named read-outs stand apart in the source and are kept apart here.

Tests used:
[1] = fibronectin; ref [28]; cited from earlier work
EGFR^high tumor = conditions: ref [28], cited from earlier work; for tumor:muscle ratio / tumor:blood ratio: fibronectin

Substance: fibronectin
- clearance half-time [1]: 2.1 ± 0.3 min
- tumor accumulation (EGFR^high tumor; 1 h, second of two values): 2.4 ± 1.0 %ID/g
- tumor accumulation (EGFR^high tumor; 1 h): 3.4 ± 1.0 %ID/g
- tumor:muscle ratio (EGFR^high tumor; 1 h, PET): 8.6 ± 3.0
- tumor:muscle ratio (EGFR^high tumor; 1 h, excised tissue): 10 ± 4
- tumor:blood ratio (EGFR^high tumor; 1 h): 8.9 ± 4.7
- tumor:muscle ratio (EGFR^high tumor; 4 h, excised tissue): 4.2 ± 1.3
- tumor:blood ratio (EGFR^high tumor; 4 h): 6.4 ± 4.3
